{"source": "FireProtDB (doi:10.1021/bi991422s)", "proteins": {"B1": {"name": "Guanyl-specific ribonuclease T1 wild type, P00651 (protein)", "chain": "MMYSKLLTLTTLLLPTALALPSLVERACDYTCGSNCYSSSDVSTAQAAGYQLHEDGETVGSNSYPHKYNNYEGFDFSVSSPYYEWPILSSGDVYSGGSPGADRVVFNENNQLAGVITHTGASGNNFVECT"}}, "settings": "Aspergillus oryzae (strain ATCC 42149 / RIB 40), pH 7, DSC, MOPS 30 mM, reversible: yes, whole UniProt chain shown; for denaturant m value / denaturant midpoint (higher = more stable) / unfolding free energy: Urea"}
{"protein": "B1", "values": [{"measurement": "denaturant m value", "setting": "5 °C", "value": 1.18, "unit": "kcal/mol/M"}, {"measurement": "denaturant midpoint (higher = more stable)", "setting": "5 °C", "value": 7.04, "unit": "M"}, {"measurement": "unfolding free energy", "setting": "5 °C", "value": 34.8, "unit": "kJ/mol"}, {"measurement": "denaturant m value", "setting": "10 °C", "value": 1.18, "unit": "kcal/mol/M"}, {"measurement": "denaturant midpoint (higher = more stable)", "setting": "10 °C", "value": 6.7, "unit": "M"}, {"measurement": "unfolding free energy", "setting": "10 °C", "value": 32.9, "unit": "kJ/mol"}, {"measurement": "denaturant m value", "setting": "15 °C", "value": 1.14, "unit": "kcal/mol/M"}, {"measurement": "denaturant midpoint (higher = more stable)", "setting": "15 °C", "value": 6.43, "unit": "M"}, {"measurement": "unfolding free energy", "setting": "15 °C", "value": 30.7, "unit": "kJ/mol"}, {"measurement": "denaturant m value", "setting": "20 °C", "value": 1.18, "unit": "kcal/mol/M"}, {"measurement": "denaturant midpoint (higher = more stable)", "setting": "20 °C", "value": 5.71, "unit": "M"}, {"measurement": "unfolding free energy", "setting": "20 °C", "value": 28.1, "unit": "kJ/mol"}, {"measurement": "denaturant m value", "setting": "25 °C", "value": 1.17, "unit": "kcal/mol/M"}, {"measurement": "denaturant midpoint (higher = more stable)", "setting": "25 °C", "value": 5.2, "unit": "M"}, {"measurement": "unfolding free energy", "setting": "25 °C", "value": 25.5, "unit": "kJ/mol"}, {"measurement": "Tm", "setting": "Thermal", "value": 50.8, "unit": "°C"}, {"measurement": "unfolding enthalpy (calorimetric)", "setting": "Thermal", "value": 404, "unit": "kJ/mol"}]}
